The results in this text go back to the supplement of paper PMC9170038.

For the data set, the system named is MS2 coat protein. Briefly: apparent KD of MS2 coat protein; designed switch direction (-1 OFF switch, 1 ON switch): -1; higher = weaker reporter binding. In a few lines: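 The buffer was Tris-HCl pH 7.5 with KCl, MgCl2, BSA, DTT, tRNA and Tween-20. In it, SNAP-549-labelled MS2 coat protein was titrated in doubling steps from 0.7 or 1.5 nM to 3 µM over chip-bound RNA switches transcribed by stalled E. coli RNA polymerase on Illumina chips. Apparent KD is the per-design median over clusters of curve fits to normalised fluorescence.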

Setting [1] is: input ligand: microRNA oligo, concentration not stated.
The mark [2] stands for this setting: Eterna round: R95, input ligand: microRNA oligo, concentration not stated.
Setting [3] is: Eterna round: R95, input ligand: FMN 200 uM.
The mark [4] stands for this setting: Eterna round: R95, input ligand: none.

Regarding “GCACGGAGUGUAGGAUAUCUGUGCGAUUAGCUCAGAGAAGGACACAUGAGGAUCACCCAUGUGUUCCACGGAAACGUUCCGUGC [Eli exng1 - 049] (Eterna round: R96, puzzle: Exclusion NG 1)”, the “apparent KD of MS2 coat protein” value (input ligand: FMN 200 uM) turned out to be 8.96 nM, the “apparent KD of MS2 coat protein” value under setting [1] worked out at 7.93 nM and the “apparent KD of MS2 coat protein” value (input ligand: none) was found to be 11.9 nM.

Take “GCACGGAGUGUAGGAUAUUAGUGCGAUUAGCACUGAGAAGGACAUGAGGAUCACCCAUGUUCCUCUAAAAUUAGCCUUCCGUGC [Eli exng1 - 036] (Eterna round: R96, puzzle: Exclusion NG 1)”: the “apparent KD of MS2 coat protein” value amounted to 12.4 nM (input ligand: FMN 200 uM), 10.7 nM under setting [1] and 14.8 nM (input ligand: none).

For the sequence “GCACGGAUCGUAGGAUAUCAUUGCGAUUAGCUAUGAGAAGGACGACAUGAGGAUCACCCAUGUCCUCUAAUUAGCCUUCCGUGC [Eli exng1 - 017] (Eterna round: R96, puzzle: Exclusion NG 1)”, the “apparent KD of MS2 coat protein” value by setting is: (input ligand: FMN 200 uM) 52.9 nM; under setting [1], 21.8 nM; (input ligand: none) 38.5 nM.

Take “GCACGGAUGGUAGGAUAUCUGUGCGAUUAGCUCAGAGAAGGACCACAUGAGGAUCACCCAUGUACCUCAAUUAACCUUCCGUGC [Eli exng1 - 021] (Eterna round: R96, puzzle: Exclusion NG 1)”: the “apparent KD of MS2 coat protein” value by setting is: (input ligand: FMN 200 uM) 16.9 nM; under setting [1], 21 nM; (input ligand: none) 17.6 nM.

For the sequence “GCACGGUAAGUGAGGAUAUACCUCUGGAUACAGAGGUAGAAGGCACAUGAGGAUCACCCAUGUCUCAGCCGUGC [Fiskers BMX 4 - 87] (puzzle: Brourd's mod of Exclusion 4)”, the “apparent KD of MS2 coat protein” value under setting [2] is 16.8 nM.

Consider “GCACUGCGAGGAUAUACAUGAGGAUCACCCAUGUGUCGGCAGCCAUGUCAGUACAAAUGUAGAAGGCGCGUAAA [EX3 #54] (Eterna round: R97, puzzle: Exclusion 3)”, for which the “apparent KD of MS2 coat protein” value is, setting by setting: (input ligand: FMN 200 uM) 87.5 nM; (input ligand: none) 28.8 nM.

On to “GCAGAAUACUAGGAUAUGUUGGUCGGAGGGCCAACAGAAGGAGUUACAUGAGGAUCACCCAUGUUCCCAAUGGG [Eternabot (Original) Solution 49] (Eterna round: R97, puzzle: Exclusion 6)”, for which the “apparent KD of MS2 coat protein” value is 66.1 nM (input ligand: FMN 200 uM) and 52.7 nM (input ligand: none).

Turning to “GCAGAAUGAGUUAGGAUAUGAUGAUUUUUCGGAAAUCAGAAGGAACUUGAGGAUCACCCAAGUAAAGAUAGGGU [JR_BMEx4_Sub064] (Eterna round: R97, puzzle: Brourd's mod of Exclusion 4)”, the “apparent KD of MS2 coat protein” value is, setting by setting: (input ligand: FMN 200 uM) 358 nM; (input ligand: none) 236 nM.

In the case of “GCAGAAUGAGUUAGGAUAUGAUGAUUUUUCGGAAAUCAGAAGGAACUUGAGGAUCACCCAAGUUAAGAUAGGGU [JR_BMEx4_Sub065] (Eterna round: R97, puzzle: Brourd's mod of Exclusion 4)”, the “apparent KD of MS2 coat protein” value runs as follows: (input ligand: FMN 200 uM) 229 nM; (input ligand: none) 85 nM.

As for “GCAGCAACUCUAAUCAAACCAACAUGAGGAUCACCCAUGUCUCAGGAUAUGGUCUGGAUUACAGGCCAGAAGGGAGAAAGCUGC [Eli exng3 - 047] (Eterna round: R96, puzzle: Exclusion NG 3)”, the “apparent KD of MS2 coat protein” value was 11.6 nM (input ligand: FMN 200 uM), 11.4 nM under setting [1] and 14.9 nM (input ligand: none).

Take “GCAGCAACUCUAAUCAAAUCAACAUGAGGAUCACCCAUGUCUCAGGAUAUGGUCUGGAUUACAGGCCAGAAGGGAGAAAGCUGC [Eli exng3 - 048] (Eterna round: R96, puzzle: Exclusion NG 3)”: the “apparent KD of MS2 coat protein” value is, setting by setting: (input ligand: FMN 200 uM) 16.5 nM; under setting [1], 13.9 nM; (input ligand: none) 16.6 nM.

For the sequence “GCAGCACAUGUAGGAUAUCUGCACGAUUAGUGCAGAGAAGGACAUGAGGAUCACCCAUGUAAUUAAGAUCAAUUAUUAAGCUGC [ENG1/3-C1] (Eterna round: R96, puzzle: Exclusion NG 1)”, the “apparent KD of MS2 coat protein” value by setting is: (input ligand: FMN 200 uM) 374 nM; under setting [1], 36.4 nM; (input ligand: none) 46.1 nM.

“GCAGCACAUGUAGGAUAUCUGCACGUUUAGUGCAGAGAAGGACAUGAGGAUCACCCAUGUAAUUAAGAUCAAUUAUUAAGCUGC [ENG1/3-C2] (Eterna round: R96, puzzle: Exclusion NG 1)”: the “apparent KD of MS2 coat protein” value (input ligand: FMN 200 uM) came out at 178 nM, the “apparent KD of MS2 coat protein” value under setting [1] came to 32.1 nM and the “apparent KD of MS2 coat protein” value (input ligand: none) amounted to 44.2 nM.

Turning to “GCAGCGUAUGUAGGAUAUCGGUCAGUUUCUGAUCGAGAAGGACAUGAGGAUCACCCAUGUAUUAUCAUGCGUGAGCAUGGCUGC [JL ENG1 3.71] (Eterna round: R96, puzzle: Exclusion NG 1)”, the “apparent KD of MS2 coat protein” value is 499 nM (input ligand: FMN 200 uM), 115 nM under setting [1] and 152 nM (input ligand: none).

With “GCAGCUAAGUGUAAUAACACAAUACAUGAGGAUCACCCAUGUGAGGAUAUGGACUGGAUUACAGUCCAGAAGGCACAAUGCUGC [Zipper Style 4] (Eterna round: R96, puzzle: Exclusion NG 3)”, the “apparent KD of MS2 coat protein” value by setting is: (input ligand: FMN 200 uM) 17.2 nM; under setting [1], 16.2 nM; (input ligand: none) 20.9 nM.

In the case of “GCAGCUAGUUCAGGAUAUCAGCACGAUUAGUGCUGAGAAGGGAACAUGAGGAUCACCCAUGUGAUCAAUGCUGCAAUUUUAAUU [ENG1/12-A1] (Eterna round: R96, puzzle: Exclusion NG 1)”, the “apparent KD of MS2 coat protein” value by setting is: (input ligand: FMN 200 uM) 481 nM; under setting [1], 235 nM; (input ligand: none) 597 nM.

“GCAGGAUAAGUGAGGAUAUACCUCUGGAUACAGAGGUAGAAGGUACAUGAGGAUCACCCAUGUCUAUAACCUGC [Fiskers BMX 4 - 80] (puzzle: Brourd's mod of Exclusion 4)”: the “apparent KD of MS2 coat protein” value under setting [2] was found to be 12.9 nM.

With “GCAGGCGUCUUGGCUCGUCUUAUUUUGAGAGGAUUGAUAACAUGAGGAUCACCCAUGUUUGUGGGAGAGUUGCAGUG [JR_SV3TOV2_Sub016] (puzzle: Sensor v3, turn-off variant 2)”, the “apparent KD of MS2 coat protein” value worked out at 108 nM under setting [3], 283 nM under setting [2] and 133 nM under setting [4].

With “GCAGGUUAAGUCAGGAUAUACCUAUGGAUACAUAGGUAGAAGGGACAUGAGGAUCACCCAUGUGUCUCGCCUGC [Fiskers BMX 4 - 70] (puzzle: Brourd's mod of Exclusion 4)”, the “apparent KD of MS2 coat protein” value under setting [2] was 62.7 nM.

As for “GCCGAAAGUGUGAGGAUAUACCUAUGGAAACAUAGGUAGAAGGCACAUGAGGAUCACCCAUGUGGGAAAACGGC [Mat - Exclusion 4 - Eli Mod - D29] (Eterna round: R97, puzzle: Brourd's mod of Exclusion 4)”, the “apparent KD of MS2 coat protein” value amounted to 322 nM (input ligand: FMN 200 uM) and 152 nM (input ligand: none).

As to “GCCGAUUAAGUCAGGAUAUACCUAUGGAUACAUAGGUAGAAGGGACAUGAGGAUCACCCAUGUGCCUCAACGGC [Fiskers BMX 4 - 18] (puzzle: Brourd's mod of Exclusion 4)”, the “apparent KD of MS2 coat protein” value came out at 71.7 nM under setting [3], 18.9 nM under setting [2] and 22.7 nM under setting [4].

Take “GCCGUCAGUGUGAGGAUAUGCCUAUGGAUACGUAGGCAGAAGGCACAUGAGGAUCACCCAUGUCCAAAGACGGC [JL-BMX4-4.30 Eli mod] (Eterna round: R97, puzzle: Brourd's mod of Exclusion 4)”: the “apparent KD of MS2 coat protein” value was found to be 520 nM (input ligand: FMN 200 uM) and 181 nM (input ligand: none).

“GCCUCACAUGAGGAUCACCCAUGUCAGGAUAUAGGAGACGGUAGCUUUGCUGCCUUCGCUAGAAGGGACUGGCU (puzzle: Exclusion 1)”: the “apparent KD of MS2 coat protein” value under setting [2] is 29.7 nM.

As for “GCCUUAGGAGUCAGGAUAUACAAUAAAAUAAUUAAGUAGAAGGGACAUGAGGAUCACCCAUGUACAUUACAUUG [alecazam29] (Eterna round: R97, puzzle: Brourd's mod of Exclusion 4)”, the “apparent KD of MS2 coat protein” value (input ligand: FMN 200 uM) worked out at 31 nM and the “apparent KD of MS2 coat protein” value (input ligand: none) was 13.6 nM.

“GCCUUAUCCGUCAGGAUAUACAGCCGCUCCUUGUUGUAGAAGGGACAUGAGGAUCACCCAUGUACGUACCAUUG [alecazam5] (Eterna round: R97, puzzle: Brourd's mod of Exclusion 4)”: the “apparent KD of MS2 coat protein” value (input ligand: FMN 200 uM) stood at 25.4 nM and the “apparent KD of MS2 coat protein” value (input ligand: none) was found to be 24.7 nM.

As for “GCGAAAACAAACAGGUGAAACAUGAGGAUCACCCAUGUCCUCAUUUGCUCGUCUUAUAAGCUAUGCGAAAGCAUAGC [Mat - Sensor v3 - turn-off var 1 - Eli Mod - D55] (puzzle: Sensor v3, turn-off variant 1)”, the “apparent KD of MS2 coat protein” value by setting is: under setting [3], 283 nM; under setting [2], 200 nM; under setting [4], 348 nM.

For “GCGAAAGCAAAACAAGUGAACAUGAGGAUCACCCAUGUCCUCAUUUGCUCGUCUUAUAAGCUAUGCGAAAGCAUAGC [Sensor 3, v1 - 9] (puzzle: Sensor v3, turn-off variant 1)”, the “apparent KD of MS2 coat protein” value came out at 99 nM under setting [3], 1220 nM under setting [2] and 96.7 nM under setting [4].

With “GCGAUAACCGAGGAUAUCGGUGAUAGAGAUAAUUGAGAAGGCGGUACAUGAGGAUCACCCAUGUAUACGUGGGC [Eternabot (L2) Solution 87] (Eterna round: R97, puzzle: Exclusion 6)”, the “apparent KD of MS2 coat protein” value came out at 16.7 nM (input ligand: FMN 200 uM) and 15.7 nM (input ligand: none).

Turning to “GCGCAAACGCCAAAAGGCGAAACAACAUGAGGAUCACCCAUGUAGGAUAUCGAUUGCUUUGCAGUCGAGAAGGGCAUAAUGCGC [JL ENG3 3.80 Mod 4] (Eterna round: R96, puzzle: Exclusion NG 3)”, the “apparent KD of MS2 coat protein” value is, setting by setting: (input ligand: FMN 200 uM) 15.4 nM; under setting [1], 13 nM; (input ligand: none) 16.6 nM.
